The values below come from US20190374567A1, “Reverse Transcriptase Dependent Conversion of RNA Templates Into DNA” (priority 2016, published 2019).

Data set [1] addresses T1, HIV Reverse Transcriptase (Human immunodeficiency virus type 1 group M subtype B, UniProt P04585).
T1 construct: a recombinant HIV Reverse Transcriptase; purchased Worthington Biochemical Corporation LS05003
The data set can be described thus: RT-PCR of 2.2 kb eGFP transcript with HIV RT, with or without beta-thujaplicinol. It is filed as biochemical. The text has this:
(§1) Samples were DNase treated using the Qiagen RNase-Free DNase Set (Qiagen Catalog #79254) followed by purification using the Qiagen RNeasy Mini Kit (Qiagen Catalog #74104) and manufacturer's instructions. To eliminate potential gDNA contamination, each RNA sample was DNase treated four times.
(§2) cDNA was generated using Invitrogen's SuperScript III First-Strand Synthesis System for RT-PCR (Invitrogen Catalog #18080-051) or a recombinant HIV Reverse Transcriptase (HIV RT, Worthington Biochemical Corporation Catalog #LS05003). All reactions received 2 μl 10 RT reaction buffer, 4 μl 25 mM MgCl2, 2 μl 0.1 M DTT, 1 μl 10 mM dNTPs, and 2 μM primer (8 μM when Phosphorothioate Primer used). For reactions using Superscript III, 200 U enzyme was used. Reactions using HIV RT contained 10 U enzyme. Different concentrations of RNA template were used, ranging from 1.5 to 5 μg/reaction. Table 21. No-RT and no-template controls were set up during reverse transcription. Reactions using Superscript III enzyme were incubated at 65° C. for 5 minutes, 50° C. for 60 minutes, and 85° C. for 5 minutes. Reactions using HIV RT were incubated at 65° C. for 5 minutes, 37° C. for 60 minutes, and 85° C. for 5 minutes. HIV RT was tested in the presence and absence of beta-thujaplicinol.
(§3) PCR Analysis: PCR was performed using primers PCR-F2 and PCR-R2. PCR products were resolved using a 1% agarose gel and purified using the QIAquick Gel Extraction Kit (Qiagen Catalog #28704). […]

In data set [2] the test system is Superscript III. Put plainly: RT-PCR of 2.2 kb eGFP transcript with Superscript III. It is filed as biochemical. The settings on record: 1.5 μg RNA.
Description: as §1, §2, §3

Data set [3] in a line: mRNA quality check before and after DNase treatment (agarose gel, OD 260/280). It is filed as physicochemical. How it is done:
The experimental procedure and assay readout for the analysis and removal of the mRNA contamination by plasmidic DNA was as follows: 1) the 4 mRNAs solutions were thawed, aliquoted and stored at −80° C., 2) aliquots of the mRNAs solutions were treated with the DNase as recommended by the manufacturer (Qiagen, cat #79254): four rounds of DNase were successively performed, 3) following the DNase digestion, the mRNAs were purified on columns as recommended by the manufacturer (Qiagen, RNeasy Elute), 4) the eluates were quantified and controlled on an Agarose gel, 5) a PCR amplification reaction was performed to evaluate the DNA contamination of the mRNA solutions before and after the DNase treatment.
Timeline of mRNAs solutions control and DNA digestion. mRNA solutions are thawed and digested with DNase. The solutions are purified on a column. The mRNA is quantified and quality control on an agarose gel is performed after purification. A PCR reaction of the mRNA aliquots is performed on aliquots from before and after purification.

A short description of data set [4]: Sequence analysis of RT-PCR product against reference sequence. The settings on record: SV40 DNA primer and HIV RT used in cDNA generation. The procedure:
Sequence Analysis: Sequencing was performed using BigDye Terminator Cycle Sequencing. Data analysis was performed by GENEWIZ with DNASTAR Lasergene software. FIG. 34 (SEQ ID NO.: 23) depicts the WT eGFP Consensus sequence (2,225 bp); SV40 DNA primer and HIV RT used in cDNA generation. FIG. 35 (SEQ ID NO.: 24) depicts the Alpha-Thio-Uridine eGFP Consensus (2,225 bp); SV40 RNA primer and Superscript used in cDNA generation.

B1: EGFP-WT: 2.2 kb wild type eGFP transcript (RNA template synthesized with plasmid pAFTAB) (nucleic acid)
DNA: TTGGCCACTCCCTCTCTGCGCGCTCGCTCGCTCACTGAGGCCGCCCGGGCAAAGCCCGGGCGTCGGGCGACCTTTGGTCGCCCGGCCTCAGTGAGCGAGCGAGCGCGCAGAGAGGGAGTGGCCAA
modifications: chemistry not fully specified; the letters are possibly those of the target site
In the case of B1, the “2.2 kb fragment of interest in PCR from RT reaction” value in data set [1] (SV40 DNA primer, 1.5 μg RNA, β-Thujaplicinol 0 μM) is “present”; in data set [1] (SV40 DNA primer, 2 μg RNA, β-Thujaplicinol 0 μM) it was “present”; in data set [1] (SV40 DNA primer, 2 μg RNA, β-Thujaplicinol 1 μM), “present”; in data set [1] (SV40 DNA primer, 5 μg RNA, β-Thujaplicinol 0.2 μM), “present”; in data set [1] (SV40 RNA primer, 1.5 μg RNA, β-Thujaplicinol 0 μM), “present”; in data set [1] (SV40 RNA primer, 1.5 μg RNA, β-Thujaplicinol 0.2 μM), “present”. For the same molecule, the “2.2 kb fragment of interest in PCR from RT reaction” value is “present” in data set [1] (SV40 RNA primer, 2 μg RNA, β-Thujaplicinol 1 μM); “present” in data set [2] (PBS RNA primer); “present” in data set [2] (PCR-R2 primer); “present” in data set [2] (SV40 DNA primer). In data set [3] (mRNA solution after DNase treatment and column purification), the “OD 260/280 Post-treatment” value was determined as 2.05. Moreover, in data set [3] (mRNA solution before DNase treatment and column purification), the “OD 260/280 Pre-treatment” value amounted to 2.07. The “consensus sequence match to the reference sequence” value in data set [4] came out at 100%.
